Results reported in patent US20210032299A1 (Eli Lilly, published 2021).
Starred links: 1 amine or outer side, 2 acyl side, 3 side chain; linkers in the order of their positions; H or OH if unused. Non-standard residues stand in square brackets, D forms with d. Groups on a side chain read outwards from the residue. No end group written: not given here. *: point of attachment. C20 diacid = O=C(O)CCCCCCCCCCCCCCCCCCC(=O)*; γGlu = O=C(O)[C@H](CCC(=O)[*:2])N[*:1]; 4Pal = N[C@@H](Cc1ccncc1)C(=O)O; αMeL = CC(C)C[C@](C)(N)C(=O)O; AEEA = NCCOCCOCC(=O)O; Aib = CC(C)(N)C(=O)O

B1: Example 10 (peptide)
peptide: Y[dA]EGTFISDYSILLDKK([AEEA-AEEA-γGlu-C20 diacid])HQQDFVNWLLAGGPSSGAPPPS-NH2
modifications: N-terminus assumed
SMILES: CC[C@H](C)[C@H](NC(=O)[C@H](CO)NC(=O)[C@H](Cc1ccc(O)cc1)NC(=O)[C@H](CC(=O)O)NC(=O)[C@H](CO)NC(=O)[C@@H](NC(=O)[C@H](Cc1ccccc1)NC(=O)[C@@H](NC(=O)CNC(=O)[C@H](CCC(=O)O)NC(=O)[C@@H](C)NC(=O)[C@@H](N)Cc1ccc(O)cc1)[C@@H](C)O)[C@@H](C)CC)C(=O)N[C@@H](CC(C)C)C(=O)N[C@@H](CC(C)C)C(=O)N[C@@H](CC(=O)O)C(=O)N[C@@H](CCCCN)C(=O)N[C@@H](CCCCNC(=O)COCCOCCNC(=O)COCCOCCNC(=O)CC[C@H](NC(=O)CCCCCCCCCCCCCCCCCCC(=O)O)C(=O)O)C(=O)N[C@@H](Cc1c[nH]cn1)C(=O)N[C@@H](CCC(N)=O)C(=O)N[C@@H](CCC(N)=O)C(=O)N[C@@H](CC(=O)O)C(=O)N[C@@H](Cc1ccccc1)C(=O)N[C@H](C(=O)N[C@@H](CC(N)=O)C(=O)N[C@@H](Cc1c[nH]c2ccccc12)C(=O)N[C@@H](CC(C)C)C(=O)N[C@@H](CC(C)C)C(=O)N[C@@H](C)C(=O)NCC(=O)NCC(=O)N1CCC[C@H]1C(=O)N[C@@H](CO)C(=O)N[C@@H](CO)C(=O)NCC(=O)N[C@@H](C)C(=O)N1CCC[C@H]1C(=O)N1CCC[C@H]1C(=O)N1CCC[C@H]1C(=O)N[C@@H](CO)C(N)=O)C(C)C
B2: Example 84 (peptide)
peptide: Y[Aib]EGTFISDYSI[αMeL]LDEK([AEEA-AEEA-γGlu-C20 diacid])HQ[Aib]DFVE[4Pal]LLAQGPSSGAPPPS-NH2
modifications: N-terminus assumed
SMILES: CC[C@H](C)[C@H](NC(=O)[C@H](Cc1ccccc1)NC(=O)[C@@H](NC(=O)CNC(=O)[C@H](CCC(=O)O)NC(=O)C(C)(C)NC(=O)[C@@H](N)Cc1ccc(O)cc1)[C@@H](C)O)C(=O)N[C@@H](CO)C(=O)N[C@@H](CC(=O)O)C(=O)N[C@@H](Cc1ccc(O)cc1)C(=O)N[C@@H](CO)C(=O)N[C@H](C(=O)N[C@@](C)(CC(C)C)C(=O)N[C@@H](CC(C)C)C(=O)N[C@@H](CC(=O)O)C(=O)N[C@@H](CCC(=O)O)C(=O)N[C@@H](CCCCNC(=O)COCCOCCNC(=O)COCCOCCNC(=O)CC[C@H](NC(=O)CCCCCCCCCCCCCCCCCCC(=O)O)C(=O)O)C(=O)N[C@@H](Cc1c[nH]cn1)C(=O)N[C@@H](CCC(N)=O)C(=O)NC(C)(C)C(=O)N[C@@H](CC(=O)O)C(=O)N[C@@H](Cc1ccccc1)C(=O)N[C@H](C(=O)N[C@@H](CCC(=O)O)C(=O)N[C@@H](Cc1ccncc1)C(=O)N[C@@H](CC(C)C)C(=O)N[C@@H](CC(C)C)C(=O)N[C@@H](C)C(=O)N[C@@H](CCC(N)=O)C(=O)NCC(=O)N1CCC[C@H]1C(=O)N[C@@H](CO)C(=O)N[C@@H](CO)C(=O)NCC(=O)N[C@@H](C)C(=O)N1CCC[C@H]1C(=O)N1CCC[C@H]1C(=O)N1CCC[C@H]1C(=O)N[C@@H](CO)C(N)=O)C(C)C)[C@@H](C)CC

Columns and labels:
human GLP-1 receptor = target: T1, human GLP-1 receptor (human, UniProt P43220 24-463); assay: SPA, displacement of [125I]-GLP-1 from hGLP-1R membranes, 0.1% bacitracin
T1 construct: whole, on cells; Assayed as crude membranes of stably transfected HEK293 cells; also called hGLP1R; hGLP-1R
Experimental: The binding buffer contains 25 mM HEPES, pH 7.4, 2.5 mM CaCl₂, 1 mM MgCl₂, 0.1% (w/v) bacitracin, 0.003% (w/v) TWEEN®-20, and Roche Complete™ Protease Inhibitors without EDTA.
Data are analyzed using four-parameter (curve maximum, curve minimum, […], Hill slope) nonlinear regression routines (Genedata Screener, version 12.0.4, Genedata AG, Basal, Switzerland). […] Values for Kᵢ are reported as the geometric mean, with error expressed as the standard error of the mean (SEM) and n is equal to the number of independent replicates (determined in assays performed on different days). Geometric Means are calculated as follows: […]

[1] = target: T2, human glucose-dependent insulinotropic polypeptide (GIP) receptor (human, UniProt P48546 22-466); assay: SPA, displacement of [125I]-GIP from hGIPR membranes, 0.1% bacitracin
T2 construct: whole, on cells; Assayed as crude membranes of stably transfected CHO cells; also called hGIPR; human GIP receptor
T2 sequence (looked up): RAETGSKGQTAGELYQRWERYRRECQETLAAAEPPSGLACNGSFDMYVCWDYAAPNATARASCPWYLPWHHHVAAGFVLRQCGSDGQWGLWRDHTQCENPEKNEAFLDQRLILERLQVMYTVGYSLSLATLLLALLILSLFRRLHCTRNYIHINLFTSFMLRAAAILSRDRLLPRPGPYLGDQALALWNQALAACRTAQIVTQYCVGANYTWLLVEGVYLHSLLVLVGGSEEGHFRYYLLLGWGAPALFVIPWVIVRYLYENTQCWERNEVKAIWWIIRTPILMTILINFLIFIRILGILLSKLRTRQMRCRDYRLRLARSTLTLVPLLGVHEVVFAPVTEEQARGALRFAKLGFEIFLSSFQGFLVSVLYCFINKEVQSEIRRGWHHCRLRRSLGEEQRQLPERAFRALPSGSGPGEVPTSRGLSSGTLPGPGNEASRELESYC

Binder	Ki (human GLP-1 receptor)	Ki [1]
B1	60.7 nM	0.159 nM
B2	325 nM	0.0584 nM
